Test results: article PMC6173736
Each block holds one substance with its values, some of them ahead of it.

What was measured:
Assay in all cases: SEC; HPLC-SEC on a bioZen 1.8 µm SEC-3 column in 150 mM KPi, pH 6.8; absorbance at 280 nm and 655 nm; samples after clicking with BCN-649, in vitro phosphopantetheinylation and purification over Ni-NTA magnetic beads
[1] = target: full-length mFAS mutant Gly2113AzPhe with additional ACP knock-out mutation Ser2150Ala (mouse) (UniProt P19096)
[2] = target: full-length mFAS mutant Gly2113AzPhe (mouse) (UniProt P19096)
[3] = target: murine fatty acid synthase type I, wild type, full-length (mouse) (UniProt P19096); conditions: remark: other sources report otherwise

full-length mFAS mutant Gly2113AzPhe with additional ACP knock-out mutation Ser2150Ala, sequence (P19096 1-2112, change not shown): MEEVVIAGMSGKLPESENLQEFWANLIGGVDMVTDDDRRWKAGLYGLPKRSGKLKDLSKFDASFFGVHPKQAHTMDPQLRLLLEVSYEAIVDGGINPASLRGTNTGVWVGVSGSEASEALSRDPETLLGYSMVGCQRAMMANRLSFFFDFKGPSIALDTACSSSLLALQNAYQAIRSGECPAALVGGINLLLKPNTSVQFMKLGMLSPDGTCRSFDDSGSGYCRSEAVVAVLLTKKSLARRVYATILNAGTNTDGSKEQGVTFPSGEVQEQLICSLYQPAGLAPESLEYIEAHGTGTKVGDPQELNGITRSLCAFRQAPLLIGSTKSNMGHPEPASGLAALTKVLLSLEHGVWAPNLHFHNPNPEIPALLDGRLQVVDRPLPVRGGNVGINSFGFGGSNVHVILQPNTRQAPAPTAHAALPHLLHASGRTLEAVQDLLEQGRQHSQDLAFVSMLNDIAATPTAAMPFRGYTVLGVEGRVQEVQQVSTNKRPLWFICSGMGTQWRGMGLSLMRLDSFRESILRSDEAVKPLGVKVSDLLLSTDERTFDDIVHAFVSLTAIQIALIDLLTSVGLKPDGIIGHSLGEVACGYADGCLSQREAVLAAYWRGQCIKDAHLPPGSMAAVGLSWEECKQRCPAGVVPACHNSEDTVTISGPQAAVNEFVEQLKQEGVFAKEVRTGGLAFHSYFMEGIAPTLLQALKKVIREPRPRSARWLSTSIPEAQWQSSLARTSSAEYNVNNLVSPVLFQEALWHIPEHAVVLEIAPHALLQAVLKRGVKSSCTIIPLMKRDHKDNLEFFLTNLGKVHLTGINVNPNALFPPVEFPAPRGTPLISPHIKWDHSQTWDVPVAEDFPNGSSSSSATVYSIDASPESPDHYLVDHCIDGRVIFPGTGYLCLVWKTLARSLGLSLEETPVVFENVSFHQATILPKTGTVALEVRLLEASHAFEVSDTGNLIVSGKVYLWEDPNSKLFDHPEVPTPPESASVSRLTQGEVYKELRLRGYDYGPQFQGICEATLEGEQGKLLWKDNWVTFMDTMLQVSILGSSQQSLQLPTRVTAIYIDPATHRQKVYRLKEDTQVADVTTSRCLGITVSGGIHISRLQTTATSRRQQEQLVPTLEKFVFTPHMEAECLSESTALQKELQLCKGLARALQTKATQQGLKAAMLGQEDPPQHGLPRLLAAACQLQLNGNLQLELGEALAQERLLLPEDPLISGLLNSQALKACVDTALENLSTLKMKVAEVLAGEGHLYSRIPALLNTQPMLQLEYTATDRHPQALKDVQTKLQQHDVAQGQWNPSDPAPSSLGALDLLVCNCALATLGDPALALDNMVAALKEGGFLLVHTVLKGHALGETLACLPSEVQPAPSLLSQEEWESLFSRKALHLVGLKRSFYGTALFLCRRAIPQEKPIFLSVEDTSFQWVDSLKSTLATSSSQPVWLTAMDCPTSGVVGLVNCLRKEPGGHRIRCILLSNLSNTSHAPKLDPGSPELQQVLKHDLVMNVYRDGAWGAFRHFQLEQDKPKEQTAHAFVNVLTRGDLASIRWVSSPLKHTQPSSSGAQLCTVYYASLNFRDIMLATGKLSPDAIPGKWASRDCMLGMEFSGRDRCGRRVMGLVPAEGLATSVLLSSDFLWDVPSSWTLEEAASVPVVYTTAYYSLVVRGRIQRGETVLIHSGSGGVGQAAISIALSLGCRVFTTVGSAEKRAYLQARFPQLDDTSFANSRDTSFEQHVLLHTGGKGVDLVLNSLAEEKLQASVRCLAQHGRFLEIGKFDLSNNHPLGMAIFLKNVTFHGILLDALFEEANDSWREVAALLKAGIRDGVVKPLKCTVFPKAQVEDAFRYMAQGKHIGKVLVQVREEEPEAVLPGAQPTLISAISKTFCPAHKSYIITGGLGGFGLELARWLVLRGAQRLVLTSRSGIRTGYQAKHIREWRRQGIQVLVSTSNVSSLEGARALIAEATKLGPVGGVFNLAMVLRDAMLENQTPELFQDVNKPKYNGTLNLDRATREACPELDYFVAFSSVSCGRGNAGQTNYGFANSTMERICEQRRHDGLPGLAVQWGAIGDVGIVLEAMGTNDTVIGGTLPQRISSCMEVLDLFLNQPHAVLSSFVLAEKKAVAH

stoichiometry N [1]: 2
Substance: full-length mFAS mutant Gly2113AzPhe with additional ACP knock-out mutation Ser2150Ala (from UniProt P19096 1-2504) (enzyme)

stoichiometry N [2]: 2
Substance: full-length mFAS mutant Gly2113AzPhe (from UniProt P19096 1-2504) (enzyme)

stoichiometry N [3]: 2
Substance: murine fatty acid synthase type I, wild type, full-length, P19096 1-2504
